The source of these data is patent US20180265850A1.

Assay [1] deals with human FKBP (12 kD, GenBank accession number: AAP36774.1) (human) (UniProt P62942). Kind of assay: cell-based or functional assay.
The target in assay [2] is FRB (11 kD, PDB access number: 1AUE A) (UniProt P42345). Kind of assay: cell-based or functional assay.

Sequence of human FKBP (12 kD, GenBank accession number: AAP36774.1) (human) (P62942 whole entry): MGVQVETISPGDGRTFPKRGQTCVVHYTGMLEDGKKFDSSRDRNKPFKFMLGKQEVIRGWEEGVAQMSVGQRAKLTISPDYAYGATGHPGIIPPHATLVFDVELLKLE
Sequence of human FKBP (12 kD, GenBank accession number: AAP36774.1) (P62942 whole entry): as above

Consider “FRB (11 kD, PDB access number: 1AUE A) (from UniProt P42345 2015-2114)”, for which, in assay [1], the bioluminescence intensity of probe TPv2.4 (printed 'TPv2') in COS-7 lysate, 10^-6 M rapamycin vs vehicle was 6.7 fold; the bioluminescence of living COS-7 cells expressing TPv2.4 on a microslide, 10^-6 M rapamycin vs control was found to be 6 fold; the bioluminescence of probe TPv2.7 (FRB-ALuc30(1-212)-FKBP), 10^-6 M rapamycin vs vehicle was determined as 2 fold; the bioluminescence of probe TPv2.8 (FRB-ALuc30(19-212)-FKBP), 10^-6 M rapamycin vs vehicle was found to be 2 fold. The substance further returned a luminescence intensity of cells expressing TPv2.4, 10^-6 M rapamycin in assay [1] of 5.4 fold.
In assay [2], “human FKBP (12 kD, GenBank accession number: AAP36774.1) (from UniProt P62942 1-108)” yielded an optical intensity of probe TPv1.3 (printed 'TPv11.3'; FKBP-ALuc23(1-212)-FRB) with 10^-6 M rapamycin (fraction of intensity without rapamycin) of 0.33 and an optical intensity of probe TPv1.7 (FKBP-ALuc30(1-212)-FRB) with 10^-6 M rapamycin (fraction of intensity without rapamycin) of 0.33.
